Laboratory results taken from paper PMC9190012, “Heparin activation of protein Z-dependent protease inhibitor (ZPI) allosterically blocks protein Z activation through an extended heparin-binding site” (The Journal of Biological Chemistry, 2022).

Legend:
Format in all cases: biochemical
FXa [1] = molecular target: T1, FXa (Homo sapiens, UniProt P00742); assay: Unaccelerated ZPI–FXa reactions: kinetics and stoichiometry of inhibition; settings: for ka,app: absence of PZ, 2.5 mM CaCl2, pH 7.4, 25 °C
T1 construct: purchased Enzyme Research Laboratories
Procedure: (§1) Apparent second-order rate constants for unaccelerated and H50-accelerated ZPI–FXa reactions were measured in the absence and presence of the optimal H50 concentration under pseudo–first-order conditions by analyzing full ZPI–FXa reaction progress curves over the ZPI concentration range of 10 to 900 nM with ∼0.5 nM FXa. Full reaction progress curves were also measured for ZPI–FXa reactions in the presence of PZ equimolar with ZPI, 25 μM lipid, and 5 mM CaCl2, as a function of the ZPI concentration in the range of 10 to 40 nM. Identical reaction mixtures were quenched at varying reaction times with substrate, and the time course of protease inactivation was measured from the decrease in initial rates of substrate hydrolysis. The first-order rate of decrease in protease activity with time was computer fit by a single exponential decay function with a nonzero end point and kobs obtained from the fitted exponential decay constant. Apparent second-order association rate constants (ka,app) were obtained from the slopes of linear plots of kobs versus the ZPI concentration according to the equation, kobs=kd+ka,app × [ZPI]0
(§2) In which kd represents the rate constant for ZPI–FXa complex dissociation and [ZPI]o is the total ZPI concentration. kd was fixed at the experimentally determined value of 10^−4 s^−1 for WT and ZPI mutants as described ([18]).
(§3) Fixed concentrations of FXa (50–100 nM FXa) were reacted with increasing concentrations of ZPI, ranging from a approximately threefold to sevenfold molar excess, in the absence of cofactors or in the presence of either 1 μM H50 or PZ equimolar with ZPI, 25 μM lipid, and 5 mM CaCl2, in kinetics buffer at 25 °C in reaction volumes of 50 μl. After allowing sufficient time to reach a reaction end point, based on measured second-order associate rate constants (∼5–30 min), remaining proteolytic activity was measured by reacting an aliquot (5–20 μl) of the reaction mixtures with 1 ml of 100 μM Spectrozyme fXa (American Diagnostica) containing 50 μg/ml Polybrene and 5 mM EDTA and monitoring the rate of absorbance change at 405 nm. The apparent SI was determined from the fitted abscissa intercept of a linear plot of residual protease activity against the molar ratio of inhibitor to protease ([18]). Because the ZPI–PZ complex dissociates to a small extent over the reaction time, apparent SIs depend on the time of incubation. To correct for such complex dissociation, apparent SIs were multiplied by the factor, exp (−kd × t), where kd is the measured complex dissociation rate constant of 10^−4 s^−1 and t the fixed reaction time. Simulations verified the validity of this correction for small extents of dissociation. Reported SIs are average values of at least two independent measurements at different reaction times.

FXa [2] = molecular target: T1, FXa; assay: PZ-accelerated ZPI–FXa reactions: kinetics and stoichiometry of inhibition; settings: for SI / ka,app × SI / ka,app × SI relative to WT: PZ-accelerated; for ka,app: equimolar PZ, 25 μM phospholipid, 5 mM CaCl2, pH 7.4, 25 °C; for PZ enhancement: ratio of PZ-accelerated to unaccelerated ka,app × SI
Procedure: as §1, §2, §3

FXa [3] = molecular target: T1, FXa; assay: H50 heparin-accelerated ZPI–FXa reactions: kinetics and stoichiometry of inhibition; settings: for SI / ka,app × SI / ka,app × SI relative to WT: 1 μM H50; for ka,app: 1 μM H50, 2.5 mM CaCl2, pH 7.4, 25 °C
Procedure: Heparin accelerating effects on the kinetics of ZPI–FXa reactions were evaluated as a function of heparin concentration under pseudo–first-order conditions (i.e., with a large molar excess of inhibitor over protease) by incubating reaction mixtures of 100 μl containing 70 nM ZPI and ∼0.5 nM FXa in the absence or presence of varying levels of H50 ranging from 10^−9 to 10^−4 M in 20 mM Tris buffer (pH 7.4), 0.1 M NaCl, 0.1% PEG 8000, 0.1 mg/ml BSA, and 2.5 mM CaCl2 at 25 °C for reaction times of 2 to 5 min. Reactions were quenched by adding 1 ml of 50 μM Pefafluor FXa substrate (Centerchem, Inc) containing 50 μg/ml polybrene and 5 mM EDTA. The initial linear rate of substrate hydrolysis was monitored at an excitation wavelength of 380 nm and an emission wavelength of 440 nm. The observed pseudo–first-order rate constant for reactions (kobs) was calculated from the equation, kobs=In([vo-v∞]/[vt-v∞])/t
where vt and v∞ are the initial velocities of protease hydrolysis of the substrate after reaction with ZPI for the fixed reaction time and after reaching the reaction end point, respectively, vo is the velocity measured in control reactions without ZPI, and t is the fixed reaction time. The dependence of kobs on heparin concentration was computer fit by nonlinear least squares analysis by the ternary complex bridging model equation ([10]).
as §1, §2
as §3, with “Simulations verified the validity of this correction for small extents of dissociation. Reported SIs are average values of at least two independent measurements at different reaction times.” left out

T1 sequence (P00742 235-488 limits assumed): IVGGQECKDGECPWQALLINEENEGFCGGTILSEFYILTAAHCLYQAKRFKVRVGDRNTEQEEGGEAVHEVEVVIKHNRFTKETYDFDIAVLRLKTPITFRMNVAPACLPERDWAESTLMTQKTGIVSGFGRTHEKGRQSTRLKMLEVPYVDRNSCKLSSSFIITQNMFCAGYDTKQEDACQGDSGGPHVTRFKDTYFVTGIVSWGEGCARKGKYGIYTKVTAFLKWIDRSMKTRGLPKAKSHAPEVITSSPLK
T1 sequence (P00742 41-179 limits assumed): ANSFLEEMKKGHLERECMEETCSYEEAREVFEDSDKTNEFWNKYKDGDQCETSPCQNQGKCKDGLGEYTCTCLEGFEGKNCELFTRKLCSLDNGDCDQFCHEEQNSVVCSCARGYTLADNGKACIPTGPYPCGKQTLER

Row | SI (FXa [1]) | ka,app × SI (FXa [1]) | ka,app × SI relative to WT (FXa [1]) | ka,app (FXa [1]) | SI (FXa [2]) | ka,app × SI (FXa [2]) | ka,app × SI relative to WT (FXa [2]) | ka,app (FXa [2]) | PZ enhancement (FXa [2]) | SI (FXa [3]) | ka,app × SI (FXa [3]) | ka,app × SI relative to WT (FXa [3]) | ka,app (FXa [3]) | H50 rate enhancement (FXa [3]; ratio of heparin-accelerated to unaccelerated ka,app × SI) | Molecule
1 | 1.7 ± 0.1 moles ZPI/mole FXa | 6.3 ± 0.3 × 10^3 M^−1 s^−1 | (0.39) | 3.7 ± 0.1 × 10^3 M^−1 s^−1 | 5.6 ± 0.1 moles ZPI/mole FXa | 2.9 ± 0.2 × 10^7 M^−1 s^−1 | (0.66) | 5.2 ± 0.2 × 10^6 M^−1 s^−1 | 4603 | 4.9 ± 0.2 moles ZPI/mole FXa | 5.6 ± 0.8 × 10^5 M^−1 s^−1 | (0.47) | 1.2 ± 0.1 × 10^5 M^−1 s^−1 | ~89 fold | K125A/R128A: ZPI mutant of helix D residues (protein, UniProt Q9UK55 22-444, looked up, variant K125A R128A) Protein Z-dependent protease …: LAPSPQSPETPAPQNQTSRVVQAPKEEEEDEQEASEEKASEEEKAWLMASRQQLAKETSNFGFSLLRKISMRHDGNMVFSPFGMSLAMTGLMLGATGPTETQIKRGLHLQALKPTKPGLLPSLFAGLAETLSRNLELGLTQGSFAFIHKDFDVKETFFNLSKRYFDTECVPMNFRNASQAKRLMNHYINKETRGKIPKLFDEINPETKLILVDYILFKGKWLTPFDPVFTEVDTFHLDKYKTIKVPMMYGAGKFASTFDKNFRCHVLKLPYQGNATMLVVLMEKMGDHLALEDYLTTDLVETWLRNMKTRNMEVFFPKFKLDQKYEMHELLRQMGIRRIFSPFADLSELSATGRNLQVSRVLQRTVIEVDERGTEAVAGILSEITAYSMPPVIKVDRPFHFMIYEETSGMLLFLGRVVNPTLL
2 | 2.3 ± 0.2 moles ZPI/mole FXa | 1.2 ± 0.2 × 10^4 M^−1 s^−1 | (0.75) | 5.0 ± 0.3 × 10^3 M^−1 s^−1 | 3.3 ± 0.1 moles ZPI/mole FXa | 2.0 ± 0.1 × 10^7 M^−1 s^−1 | (0.45) | 6.2 ± 0.1 × 10^6 M^−1 s^−1 | 1733 | 2.4 ± 0.1 moles ZPI/mole FXa | 9.2 ± 0.9 × 10^5 M^−1 s^−1 | (0.77) | 3.9 ± 0.2 × 10^5 M^−1 s^−1 |  | K284A: ZPI helix H site mutant (protein, UniProt Q9UK55 22-444, looked up, variant K284A) Protein Z-dependent protease …: LAPSPQSPETPAPQNQTSRVVQAPKEEEEDEQEASEEKASEEEKAWLMASRQQLAKETSNFGFSLLRKISMRHDGNMVFSPFGMSLAMTGLMLGATGPTETQIKRGLHLQALKPTKPGLLPSLFKGLRETLSRNLELGLTQGSFAFIHKDFDVKETFFNLSKRYFDTECVPMNFRNASQAKRLMNHYINKETRGKIPKLFDEINPETKLILVDYILFKGKWLTPFDPVFTEVDTFHLDKYKTIKVPMMYGAGKFASTFDKNFRCHVLKLPYQGNATMLVVLMEAMGDHLALEDYLTTDLVETWLRNMKTRNMEVFFPKFKLDQKYEMHELLRQMGIRRIFSPFADLSELSATGRNLQVSRVLQRTVIEVDERGTEAVAGILSEITAYSMPPVIKVDRPFHFMIYEETSGMLLFLGRVVNPTLL
